Data as given in US7521477B2, “Vitamin C derivatives with peptide, preparation method thereof and composition comprising the same” (Peptron Co., Ltd., priority 2003, dated 2009).
Peptide text beside a SMILES is read from it. * marks the point of attachment. X1 = O=C(CCC(=O)*)OC[C@H](O)[C@H]1OC(=O)C(O)=C1O

What was measured:
male Hartley guinea pigs [1] = experiment: Phototoxicity test; conditions: guinea pig, in vivo
Experimental: Each of the test samples was applied to the skin of guinea pigs, and the guinea pigs were exposed to ultraviolet A (UVA) radiation. Then, potency to induce phototoxicity was evaluated. Induction of phototoxicity, which is an abnormal response of the skin to a photo-stimulus such as ultraviolet or visible light, occurs non-immunologically by a chemical. Unlike the allergic response, the degree of phototoxicity can be expected by sufficient intensity of radiation and drugs.
CP and 8-MOP were prepared at a final concentration of 10% in DMSO and then diluted to 1%. Each of guinea pigs was fixed on a fixing plate, and the skin of the guinea pig was covered with 50 μl of each of the test samples. Then, the right area of the skin was not exposed to UV light, and the left area of the skin was exposed to UVA light (320 to 380 nm) of 15 J/cm^2, which was irradiated in a distance of about 10 cm for about 2 hrs. 24 hrs, 48 hr and 72 hrs after UVA irradiation, photosensitization in the treatment group was evaluated in comparison with that in the positive control groups.

male Hartley guinea pigs [2] = experiment: Photosensitization test (Adjuvant & Strip method); type: in vivo; conditions: guinea pig, in vivo
Experimental: A photosensitization test for the compound II-4 was carried out according to an Adjuvant & Strip method using male Hartley guinea pigs. After four sites to be sensitized were selected at the cervical and dorsal skin of the guinea pigs, an emulsion of WFI and FCA were intradermally injected to each of the selected sites. The sensitized sites were stripped only in a degree of inducing weak erythema, and covered with 0.01 PBS (excipient group), the compound II-4 (test group) and CP (chlorpromazine; positive control group) in a non-occlusive manner. After two hours, long wave-length UV light of about 10 J/cm^2 was irradiated to the test substance-applied sites. 24 hrs, 48 hrs and 72 hrs after UV irradiation, signs of photosensitization were investigated.

eyes of rabbits = experiment: Ocular irritation test; type: in vivo, New Zealand White Rabbit; conditions: 0.1 ml of 1% in 0.01M PBS
Experimental: The compound II-4 was determined whether inducing ocular irritation or evaluated for the degree of ocular irritation. The compound II-4 was applied to the eyes of rabbits (New Zealand White Rabbit, NZW).
0.1 ml of 1% compound II-4 in 0.01M PBS was applied to the eyes of the rabbits. That is, the test compound was applied to one eye (right) of each of nine rabbits in an amount of 0.1 ml/head according to the standard criteria for toxicity test of pharmaceutical and medicinal substances (a publication by Korean Food & Drug Administration, Vol. 1999-61, Dec. 22, 1999). After application of the test compound, the treated eyes of the rabbits were maintained at a state of being closed for about one second to prevent loss of the applied test compound. Then, the degree of damage in the cornea, the iris and the conjunctiva was investigated.

male Hartley guinea pigs [3] = conditions: guinea pig, in vivo
Experimental: Two weeks after secondary sensitization, topical challenge was carried out, as follows. […] Skin reading was made after removal of the patches.

mice = experiment: Toxicity test upon single oral administration; type: in vivo; conditions: single oral dose of 2,000 mg/10 ml/kg, 14 days, male and female mice
Experimental: (§1) The compound II-4 was evaluated for safety upon single oral administration. The compound II-4 was orally administered to five male and five female mice (SamtakoBioKorea Co. Ltd.) in a single dose of 2,000 mg/10 ml/kg. As a control, five male and five female mice were orally administered once with 0.1 M PBS of 10 ml/kg. During 14 days after administration, death, general pathogenic symptoms and change in body weight were not observed.

[4] = Toxicity test upon single oral administration; type: in vivo; conditions: both sexes, mouse, in vivo, 2000 mg/kg; single oral administration, male and female mice; read-out: Lethal dose
Experimental: as §1

rabbits = experiment: Skin irritation test (patch test); type: in vivo; conditions: 0.5 ml of 1% in 0.01M PBS, 24 hrs patch, read 24 hrs and 72 hrs
Experimental: 0.5 ml of 1% compound II-4 in 0.01M PBS was applied to each hairless area (2.5 cm×2.5 cm) of the back of rabbits for 24 hrs once. Each of the treated sites was covered with a single sheet of gauge (10 cm×10 cm) to prevent loss of the test compound by contact and then an impermeable and unreactive solid film to prevent evaporation of the test compound. Then, the treated site was bound with an elastic bandage while not disturbing behavior of the rabbits, and the bandage was then held in place by a paper tape. 24 hrs and 72 hrs after application of the test compound, skin irritation was investigated.

[5] = system: human normal fibroblasts, B16 melanocytes and HaCaT cells; experiment: Cytotoxicity, MTT assay; type: cell-based; conditions: concentration of 5 mM

C[C@@H](O)[C@H](NC(=O)[C@H](CCCCN)NC(=O)CCC(=O)OC[C@H](O)[C@H]1OC(=O)C(O)=C1O)C(=O)N[C@H](C(=O)N[C@@H](CCCCN)C(=O)N[C@@H](CO)C(=O)O)[C@@H](C)O [II-4, 6-(succinyl-lysyl-threonyl-threonyl-lysyl-serine(SEQ ID NO:1))ascorbic acid] (X1-KTTKS-OH)
Evaluation (male Hartley guinea pigs [1]): Practically non-irritating
Mean score (male Hartley guinea pigs [1]): 0
Phototoxicity (conclusion) (male Hartley guinea pigs [1]): rarely have phototoxicity
Total score/Site No (male Hartley guinea pigs [1]): 0 + 0/10
Total score/Site No. (male Hartley guinea pigs [1]): 0 + 0/10
Mean score (male Hartley guinea pigs [2]): (0 + 0)/5
Photosensitization index (male Hartley guinea pigs [2]): 0
Photosensitizer (conclusion) (male Hartley guinea pigs [2]): not a photosensitizer
Stimulation index (male Hartley guinea pigs [2]): 0
Index of Acute Ocular Irritation (I.A.O.I) (eyes of rabbits): zero
Conjunctiva redness and chemosis (eyes of rabbits; day 1 to day 7): no sign of conjunctiva redness and chemosis was observed
Sensitization class (male Hartley guinea pigs [3]): I
Sensitization rate (%) (male Hartley guinea pigs [3]): 0%
Sensitization score (total hrs) (male Hartley guinea pigs [3]): 0
Skin reaction in induced regions (male Hartley guinea pigs [3]): no skin reaction was observed
sensitization class (male Hartley guinea pigs [3]): I
skin irritation rate (male Hartley guinea pigs [3]): 0%
Death, general pathogenic symptoms and change in body weight (mice): not observed
LD50 at 336 h [4]: > 2000 mg/kg
Skin irritation (rabbits): very safe upon application to the skin
Cytotoxicity [5]: did not showed cytotoxicity
